From the RNAGym collection of RNA variant scans (doi:10.1073/pnas.2313332121)

B1: TPR t1 (parent)
chain: GACCAAUCUGCCCUCAGAGCUCGAGAACAUCUUCGGAUGCAGAGGAGGCAGGCUUCGGUGGCGCGAUAGCGCCAACGUCCUCAACCUCCAAUGCAUCCCACCACAUGAUGAUGCCUGAAGAGCCUUGGUUUUUUG

Variants of: B1
Test: polymerase ribozyme fitness, log enrichment relative to wild type (log ratio); higher = more active; in vitro selection for triplet polymerase activity
Summary of the method: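 Genotype fitness is the logarithm of its enrichment divided by wild-type enrichment, using inverse-variance-weighted averages of replicates. That logarithm is base 2. Enrichment was measured by Illumina sequencing of input and output libraries from one triplicate in vitro selection round, with frozen incubation at −7 °C, on PCR-built, transcribed mutant libraries of each subunit of a heterodimeric triplet polymerase ribozyme, retaining genotypes with ≥10 input reads and ≥1 read per output.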

Row | Variant | polymerase ribozyme fitness (log ratio)
1 | G58C C62A C114A G127A U130G | -6.59
2 | C97A A111U | -5.77
3 | C20U C40A G63U C123U | -3.75
4 | A41U C104U | -0.832
5 | G17C A41G A91U | -4.31
6 | C8A A108G | -1.84
7 | U78C C102G | -5.35
8 | G120A G127C G135U | -0.669
9 | G45U C104A G110U A118C | -5.08
10 | C3A C40A G93U G110U | -3.31
11 | G51A A84G A108C U112G | -8.09
12 | C8A G35A G61A C89U A95U U106A | -6.13
13 | C34A A43U | -5.98
14 | A5C C73G A84U | -2.25
15 | C15G G63C A84C | -4.12
16 | C40A U109C C115U | -6.69
17 | C8G G44C G60A | 0.198
18 | A5C C13U C88A C123U | 1.09
19 | G52A A68G | -3.34
20 | G60A C115U | -1.41
21 | C62A G120A | -0.339

Row | Variant | polymerase ribozyme fitness (log ratio)
22 | A2U G60A C79U C80A A121G | -5.43
23 | U9G G69A | -2.25
24 | C12U G58A C62A | -1.76
25 | G19C C20U C40A G61A U87A U112A | -5.56
26 | A50C A91G C124A U133A | 1.25
27 | C11U C15U | -2.2
28 | G36U U87C C115U A119G U131C | 1.61
29 | U9A G19U G42A A46G U78C | -4.66
30 | U14A C72G | -2.35
31 | C62U A74C C89A C104A U112C | -2.59
32 | G61U C70U | -2.03
33 | C3U C13G A111C | -1.32
34 | U14G G48U C94A C101U G120C | -2.13
35 | A18C G19A C40U C49U A50U C89U C124U | -5.69
36 | U21A C72A | -0.312
37 | C53G C72A C82G | -0.867
38 | C62A A75U A111C | -1.81
39 | C4U G42C G60U C88G C99G A111U U134A | -5.4
40 | C11G G36A G47C G117A U129A | -4.45
41 | C73U C94U G113U | -3.64
42 | C12G C22U | -3.18

Row | Variant | polymerase ribozyme fitness (log ratio)
43 | A5U C11G C12U G61U A111C G113A | -4.88
44 | G48A U130C | -0.486
45 | C12G A121U | 1.78
46 | A16U G117A | -2.22
47 | C40U A41U G60A | -2.3
48 | G47C C64U A90C C104U | -2.77
49 | G36A G61C | -2.63
50 | C28A G47A C79U G110C | -2.69
51 | C70G U96A | -4.79
52 | C101U C124A | 1.17
53 | U9G A18C C56G C72A G120A U130A | -2.29
54 | U92A U129G | -4.28
55 | C49G G51C A119U U133C | -3.18
56 | C12A C15G C101U | -3.16
57 | C62U A74U | -0.71
58 | C76A C79G | -0.726
59 | A41G C64A | -7.34
60 | U21G A50U | -2.82
61 | A6U C40G G51U | -4.16
62 | C13A G19C G69U G110U U112C | -5.05
63 | C12A U87A C89G C94A G113A | -6.04

Row | Variant | polymerase ribozyme fitness (log ratio)
64 | C22U G120C | -2.63
65 | A29U C70U | -2.15
66 | C115A G128A U130C | -0.444
67 | C8A G10U C73A | -0.361
68 | C53A U130A | 0.226
69 | C12G A74U C80U | -1.1
70 | A5U G44A A74U C82G U87G | -4.13
71 | C12G C15U G48A G61A U81G C123U | -2.3
72 | C85G G127C | -2.56
73 | G63U C85U | -2.96
74 | A41U U87G | -0.681
75 | C13G C20U G93A C124A | -1.04
76 | C8G A29U G120U | 0.42
77 | A46U C56U | -0.82
78 | U55A G69C C104U C115A | -0.166
79 | C12G C76U | -0.0382
80 | A24G G42U G60U C88G A121G | -1.74
81 | C4U U9C C34G A100U | -4.68
82 | U9C C56G C62G | -3.04
83 | G77A A83C C86U U116A G120C U125A | -1.96
84 | G39U A103C C114U A119U G120A U130A | -4.34
